# Reference: the supplement of paper PMC12338614
# ± gives the uncertainty stated by the source.
# B1: library; numbered along this chain (parent)
# chain: MEVVDPQQLGMFTEGELMSVGMDTFIHRIDSTEVIYQPRRKRAKLIGKYLMGDLLGEGSYGKVKEVLDSETLCRRAVKILKKKKLRRIPNGEANVKKEIQLLRRLRHKNVIQLVDVLYNEEKQKMYMVMEYCVCGMQEMLDSVPEKRFPVCQAHGYFCQLIDGLEYLHSQGIVHKDIKPGNLLLTTGGTLKISDLGVAEALHPFAADDTCRTSQGSPAFQPPEIANGLDTFSGFKVDIWSAGVTLYNITTGLYPFEGDNIYKLFENIGKGSYAIPGDCGPPLSDLLKGMLEYEPAKRFSIRQIRQHSWFRKKHPPAEAPVPIPPSPDTKDRWRSMTVVPYLEDLHGADEDEDLFDIEDDIIYTQDFTVPGQVPEEEASHNGQRRGLPKAVCMNGTEAAQLSTKSRAEGRAPNPARKACSASSKIRRLSACKQQ
# Variants of: B1
# Assay: STK11 functional score (HeLa growth suppression), rescaled enrichment; synonymous median = 1, nonsense median = 0 (normalised score)
# Settings: with HeLa; variant type: missense
# In short: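 The functional score takes the post/pre-selection log ratio, corrects it to wild type, rescales it to synonymous and nonsense medians, and merges it over codons and replicate transfections, with error from bootstrapping. Counts came from tiled gDNA amplicons sequenced on NextSeq (~2 million reads per tile). The libraries were POPCode codon-randomised, codon-optimised STK11 integrated by Bxb1 at an AAVS1 landing pad in HeLa, three regions with three transfections each.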
row,Variant,STK11 functional score
1,MEVVDPQQLGMFTEGELMSVGMDTFIHRIDSTEVIYQPRRKRAKLIGKYLMGDLLGEGSYGKVKEVLDSETLCRRAVKILKKKKLRRIPNGEANVKKEIQLLRRLRHKNVIQLVDVLYNEEKQKMYMVMEYCVCGMQEMLDSVPEKRFPVCQAHGYFCQLIDGLEYLHSQGIVHKDIKPGNLSLTTGGTLKISDLGVAEALHPFAADDTCRTSQGSPAFQPPEIANGLDTFSGFKVDIWSAGVTLYNITTGLYPFEGDNIYKLFENIGKGSYAIPGDCGPPLSDLLKGMLEYEPAKRFSIRQIRQHSWFRKKHPPAEAPVPIPPSPDTKDRWRSMTVVPYLEDLHGADEDEDLFDIEDDIIYTQDFTVPGQVPEEEASHNGQRRGLPKAVCMNGTEAAQLSTKSRAEGRAPNPARKACSASSKIRRLSACKQQ [L183S],0.646 ± 0.4
2,MEVVDPQQLGMFTEGELMSVGMDTFIHRIDSTEVIYQPRRKRAKLIGKYLMGDLLGEGSYGKVKEVLDSETLCRRAVKILKKKKLRRIPNGEANVKKEIQLLRRLRHKNVIQLVDVLYNEEKQKMYMVMEYCVCGMQEMLDSVPEKRFPVCQAHGYFCQLIDGLEYLHSQGIVHKDIKPGNLTLTTGGTLKISDLGVAEALHPFAADDTCRTSQGSPAFQPPEIANGLDTFSGFKVDIWSAGVTLYNITTGLYPFEGDNIYKLFENIGKGSYAIPGDCGPPLSDLLKGMLEYEPAKRFSIRQIRQHSWFRKKHPPAEAPVPIPPSPDTKDRWRSMTVVPYLEDLHGADEDEDLFDIEDDIIYTQDFTVPGQVPEEEASHNGQRRGLPKAVCMNGTEAAQLSTKSRAEGRAPNPARKACSASSKIRRLSACKQQ [L183T],1.1 ± 0.28
3,MEVVDPQQLGMFTEGELMSVGMDTFIHRIDSTEVIYQPRRKRAKLIGKYLMGDLLGEGSYGKVKEVLDSETLCRRAVKILKKKKLRRIPNGEANVKKEIQLLRRLRHKNVIQLVDVLYNEEKQKMYMVMEYCVCGMQEMLDSVPEKRFPVCQAHGYFCQLIDGLEYLHSQGIVHKDIKPGNLRLTTGGTLKISDLGVAEALHPFAADDTCRTSQGSPAFQPPEIANGLDTFSGFKVDIWSAGVTLYNITTGLYPFEGDNIYKLFENIGKGSYAIPGDCGPPLSDLLKGMLEYEPAKRFSIRQIRQHSWFRKKHPPAEAPVPIPPSPDTKDRWRSMTVVPYLEDLHGADEDEDLFDIEDDIIYTQDFTVPGQVPEEEASHNGQRRGLPKAVCMNGTEAAQLSTKSRAEGRAPNPARKACSASSKIRRLSACKQQ [L183R],0.0747 ± 0.097
4,MEVVDPQQLGMFTEGELMSVGMDTFIHRIDSTEVIYQPRRKRAKLIGKYLMGDLLGEGSYGKVKEVLDSETLCRRAVKILKKKKLRRIPNGEANVKKEIQLLRRLRHKNVIQLVDVLYNEEKQKMYMVMEYCVCGMQEMLDSVPEKRFPVCQAHGYFCQLIDGLEYLHSQGIVHKDIKPGNLPLTTGGTLKISDLGVAEALHPFAADDTCRTSQGSPAFQPPEIANGLDTFSGFKVDIWSAGVTLYNITTGLYPFEGDNIYKLFENIGKGSYAIPGDCGPPLSDLLKGMLEYEPAKRFSIRQIRQHSWFRKKHPPAEAPVPIPPSPDTKDRWRSMTVVPYLEDLHGADEDEDLFDIEDDIIYTQDFTVPGQVPEEEASHNGQRRGLPKAVCMNGTEAAQLSTKSRAEGRAPNPARKACSASSKIRRLSACKQQ [L183P],0.221 ± 0.35
5,MEVVDPQQLGMFTEGELMSVGMDTFIHRIDSTEVIYQPRRKRAKLIGKYLMGDLLGEGSYGKVKEVLDSETLCRRAVKILKKKKLRRIPNGEANVKKEIQLLRRLRHKNVIQLVDVLYNEEKQKMYMVMEYCVCGMQEMLDSVPEKRFPVCQAHGYFCQLIDGLEYLHSQGIVHKDIKPGNLYLTTGGTLKISDLGVAEALHPFAADDTCRTSQGSPAFQPPEIANGLDTFSGFKVDIWSAGVTLYNITTGLYPFEGDNIYKLFENIGKGSYAIPGDCGPPLSDLLKGMLEYEPAKRFSIRQIRQHSWFRKKHPPAEAPVPIPPSPDTKDRWRSMTVVPYLEDLHGADEDEDLFDIEDDIIYTQDFTVPGQVPEEEASHNGQRRGLPKAVCMNGTEAAQLSTKSRAEGRAPNPARKACSASSKIRRLSACKQQ [L183Y],1.57 ± 0.1
6,MEVVDPQQLGMFTEGELMSVGMDTFIHRIDSTEVIYQPRRKRAKLIGKYLMGDLLGEGSYGKVKEVLDSETLCRRAVKILKKKKLRRIPNGEANVKKEIQLLRRLRHKNVIQLVDVLYNEEKQKMYMVMEYCVCGMQEMLDSVPEKRFPVCQAHGYFCQLIDGLEYLHSQGIVHKDIKPGNLVLTTGGTLKISDLGVAEALHPFAADDTCRTSQGSPAFQPPEIANGLDTFSGFKVDIWSAGVTLYNITTGLYPFEGDNIYKLFENIGKGSYAIPGDCGPPLSDLLKGMLEYEPAKRFSIRQIRQHSWFRKKHPPAEAPVPIPPSPDTKDRWRSMTVVPYLEDLHGADEDEDLFDIEDDIIYTQDFTVPGQVPEEEASHNGQRRGLPKAVCMNGTEAAQLSTKSRAEGRAPNPARKACSASSKIRRLSACKQQ [L183V],1.2 ± 0.18
7,MEVVDPQQLGMFTEGELMSVGMDTFIHRIDSTEVIYQPRRKRAKLIGKYLMGDLLGEGSYGKVKEVLDSETLCRRAVKILKKKKLRRIPNGEANVKKEIQLLRRLRHKNVIQLVDVLYNEEKQKMYMVMEYCVCGMQEMLDSVPEKRFPVCQAHGYFCQLIDGLEYLHSQGIVHKDIKPGNLLMTTGGTLKISDLGVAEALHPFAADDTCRTSQGSPAFQPPEIANGLDTFSGFKVDIWSAGVTLYNITTGLYPFEGDNIYKLFENIGKGSYAIPGDCGPPLSDLLKGMLEYEPAKRFSIRQIRQHSWFRKKHPPAEAPVPIPPSPDTKDRWRSMTVVPYLEDLHGADEDEDLFDIEDDIIYTQDFTVPGQVPEEEASHNGQRRGLPKAVCMNGTEAAQLSTKSRAEGRAPNPARKACSASSKIRRLSACKQQ [L184M],0.45 ± 0.16
8,MEVVDPQQLGMFTEGELMSVGMDTFIHRIDSTEVIYQPRRKRAKLIGKYLMGDLLGEGSYGKVKEVLDSETLCRRAVKILKKKKLRRIPNGEANVKKEIQLLRRLRHKNVIQLVDVLYNEEKQKMYMVMEYCVCGMQEMLDSVPEKRFPVCQAHGYFCQLIDGLEYLHSQGIVHKDIKPGNLLDTTGGTLKISDLGVAEALHPFAADDTCRTSQGSPAFQPPEIANGLDTFSGFKVDIWSAGVTLYNITTGLYPFEGDNIYKLFENIGKGSYAIPGDCGPPLSDLLKGMLEYEPAKRFSIRQIRQHSWFRKKHPPAEAPVPIPPSPDTKDRWRSMTVVPYLEDLHGADEDEDLFDIEDDIIYTQDFTVPGQVPEEEASHNGQRRGLPKAVCMNGTEAAQLSTKSRAEGRAPNPARKACSASSKIRRLSACKQQ [L184D],-0.0783 ± 0.1
9,MEVVDPQQLGMFTEGELMSVGMDTFIHRIDSTEVIYQPRRKRAKLIGKYLMGDLLGEGSYGKVKEVLDSETLCRRAVKILKKKKLRRIPNGEANVKKEIQLLRRLRHKNVIQLVDVLYNEEKQKMYMVMEYCVCGMQEMLDSVPEKRFPVCQAHGYFCQLIDGLEYLHSQGIVHKDIKPGNLLCTTGGTLKISDLGVAEALHPFAADDTCRTSQGSPAFQPPEIANGLDTFSGFKVDIWSAGVTLYNITTGLYPFEGDNIYKLFENIGKGSYAIPGDCGPPLSDLLKGMLEYEPAKRFSIRQIRQHSWFRKKHPPAEAPVPIPPSPDTKDRWRSMTVVPYLEDLHGADEDEDLFDIEDDIIYTQDFTVPGQVPEEEASHNGQRRGLPKAVCMNGTEAAQLSTKSRAEGRAPNPARKACSASSKIRRLSACKQQ [L184C],0.804 ± 0.36
10,MEVVDPQQLGMFTEGELMSVGMDTFIHRIDSTEVIYQPRRKRAKLIGKYLMGDLLGEGSYGKVKEVLDSETLCRRAVKILKKKKLRRIPNGEANVKKEIQLLRRLRHKNVIQLVDVLYNEEKQKMYMVMEYCVCGMQEMLDSVPEKRFPVCQAHGYFCQLIDGLEYLHSQGIVHKDIKPGNLLITTGGTLKISDLGVAEALHPFAADDTCRTSQGSPAFQPPEIANGLDTFSGFKVDIWSAGVTLYNITTGLYPFEGDNIYKLFENIGKGSYAIPGDCGPPLSDLLKGMLEYEPAKRFSIRQIRQHSWFRKKHPPAEAPVPIPPSPDTKDRWRSMTVVPYLEDLHGADEDEDLFDIEDDIIYTQDFTVPGQVPEEEASHNGQRRGLPKAVCMNGTEAAQLSTKSRAEGRAPNPARKACSASSKIRRLSACKQQ [L184I],0.978 ± 0.22
11,MEVVDPQQLGMFTEGELMSVGMDTFIHRIDSTEVIYQPRRKRAKLIGKYLMGDLLGEGSYGKVKEVLDSETLCRRAVKILKKKKLRRIPNGEANVKKEIQLLRRLRHKNVIQLVDVLYNEEKQKMYMVMEYCVCGMQEMLDSVPEKRFPVCQAHGYFCQLIDGLEYLHSQGIVHKDIKPGNLLGTTGGTLKISDLGVAEALHPFAADDTCRTSQGSPAFQPPEIANGLDTFSGFKVDIWSAGVTLYNITTGLYPFEGDNIYKLFENIGKGSYAIPGDCGPPLSDLLKGMLEYEPAKRFSIRQIRQHSWFRKKHPPAEAPVPIPPSPDTKDRWRSMTVVPYLEDLHGADEDEDLFDIEDDIIYTQDFTVPGQVPEEEASHNGQRRGLPKAVCMNGTEAAQLSTKSRAEGRAPNPARKACSASSKIRRLSACKQQ [L184G],0.204 ± 0.079
12,MEVVDPQQLGMFTEGELMSVGMDTFIHRIDSTEVIYQPRRKRAKLIGKYLMGDLLGEGSYGKVKEVLDSETLCRRAVKILKKKKLRRIPNGEANVKKEIQLLRRLRHKNVIQLVDVLYNEEKQKMYMVMEYCVCGMQEMLDSVPEKRFPVCQAHGYFCQLIDGLEYLHSQGIVHKDIKPGNLLATTGGTLKISDLGVAEALHPFAADDTCRTSQGSPAFQPPEIANGLDTFSGFKVDIWSAGVTLYNITTGLYPFEGDNIYKLFENIGKGSYAIPGDCGPPLSDLLKGMLEYEPAKRFSIRQIRQHSWFRKKHPPAEAPVPIPPSPDTKDRWRSMTVVPYLEDLHGADEDEDLFDIEDDIIYTQDFTVPGQVPEEEASHNGQRRGLPKAVCMNGTEAAQLSTKSRAEGRAPNPARKACSASSKIRRLSACKQQ [L184A],0.745 ± 0.32
13,MEVVDPQQLGMFTEGELMSVGMDTFIHRIDSTEVIYQPRRKRAKLIGKYLMGDLLGEGSYGKVKEVLDSETLCRRAVKILKKKKLRRIPNGEANVKKEIQLLRRLRHKNVIQLVDVLYNEEKQKMYMVMEYCVCGMQEMLDSVPEKRFPVCQAHGYFCQLIDGLEYLHSQGIVHKDIKPGNLLHTTGGTLKISDLGVAEALHPFAADDTCRTSQGSPAFQPPEIANGLDTFSGFKVDIWSAGVTLYNITTGLYPFEGDNIYKLFENIGKGSYAIPGDCGPPLSDLLKGMLEYEPAKRFSIRQIRQHSWFRKKHPPAEAPVPIPPSPDTKDRWRSMTVVPYLEDLHGADEDEDLFDIEDDIIYTQDFTVPGQVPEEEASHNGQRRGLPKAVCMNGTEAAQLSTKSRAEGRAPNPARKACSASSKIRRLSACKQQ [L184H],0.93 ± 0.43
14,MEVVDPQQLGMFTEGELMSVGMDTFIHRIDSTEVIYQPRRKRAKLIGKYLMGDLLGEGSYGKVKEVLDSETLCRRAVKILKKKKLRRIPNGEANVKKEIQLLRRLRHKNVIQLVDVLYNEEKQKMYMVMEYCVCGMQEMLDSVPEKRFPVCQAHGYFCQLIDGLEYLHSQGIVHKDIKPGNLLFTTGGTLKISDLGVAEALHPFAADDTCRTSQGSPAFQPPEIANGLDTFSGFKVDIWSAGVTLYNITTGLYPFEGDNIYKLFENIGKGSYAIPGDCGPPLSDLLKGMLEYEPAKRFSIRQIRQHSWFRKKHPPAEAPVPIPPSPDTKDRWRSMTVVPYLEDLHGADEDEDLFDIEDDIIYTQDFTVPGQVPEEEASHNGQRRGLPKAVCMNGTEAAQLSTKSRAEGRAPNPARKACSASSKIRRLSACKQQ [L184F],0.735 ± 0.078
